Here are results for six molecules from ChEMBL document CHEMBL1908105, “UDP-glucuronosyltransferases and clinical drug-drug interactions” (Pharmacol Ther, 2005).

Where “and” joins values, the source holds several entries; their conditions need not be identical. Identical values can stand only once.

The target in data set [1] is UGT1A3 (Homo sapiens, UniProt P35503). Put plainly: (§1) Drug glucuronidation reaction catalyzed by human recombinant UGT1A3. Conditions: recombinant UGT1A3.
Data set [2] deals with T1, UDP-glucuronosyltransferase 1A3 (Homo sapiens, UniProt P35503).
T1 sequence (P35503 whole entry): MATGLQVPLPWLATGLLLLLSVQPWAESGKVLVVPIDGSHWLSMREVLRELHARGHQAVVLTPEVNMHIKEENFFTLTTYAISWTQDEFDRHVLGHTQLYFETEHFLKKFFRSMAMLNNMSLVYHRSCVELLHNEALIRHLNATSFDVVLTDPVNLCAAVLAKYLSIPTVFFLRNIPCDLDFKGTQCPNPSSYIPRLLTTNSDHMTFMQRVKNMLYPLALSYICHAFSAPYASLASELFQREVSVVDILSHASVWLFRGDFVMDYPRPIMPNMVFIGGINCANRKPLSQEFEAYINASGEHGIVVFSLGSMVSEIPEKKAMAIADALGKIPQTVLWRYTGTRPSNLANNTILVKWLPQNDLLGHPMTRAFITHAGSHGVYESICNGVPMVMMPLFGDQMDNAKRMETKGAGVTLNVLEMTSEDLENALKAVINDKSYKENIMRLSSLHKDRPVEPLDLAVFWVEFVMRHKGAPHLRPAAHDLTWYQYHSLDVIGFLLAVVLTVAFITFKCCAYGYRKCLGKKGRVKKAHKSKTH
The description is as §1.

A short description of data set [3]: Inhibition of AZT glucuronidation by human UGT enzymes from liver microsomes. The arrangement: species or system Microsome. On the technique in general: Liver microsomes are vesicles of endoplasmic reticulum, rich in cytochrome P450 enzymes.
In data set [4] the target is T2, UGT2B7 (Homo sapiens, UniProt P16662).
T2 sequence (P16662 whole entry): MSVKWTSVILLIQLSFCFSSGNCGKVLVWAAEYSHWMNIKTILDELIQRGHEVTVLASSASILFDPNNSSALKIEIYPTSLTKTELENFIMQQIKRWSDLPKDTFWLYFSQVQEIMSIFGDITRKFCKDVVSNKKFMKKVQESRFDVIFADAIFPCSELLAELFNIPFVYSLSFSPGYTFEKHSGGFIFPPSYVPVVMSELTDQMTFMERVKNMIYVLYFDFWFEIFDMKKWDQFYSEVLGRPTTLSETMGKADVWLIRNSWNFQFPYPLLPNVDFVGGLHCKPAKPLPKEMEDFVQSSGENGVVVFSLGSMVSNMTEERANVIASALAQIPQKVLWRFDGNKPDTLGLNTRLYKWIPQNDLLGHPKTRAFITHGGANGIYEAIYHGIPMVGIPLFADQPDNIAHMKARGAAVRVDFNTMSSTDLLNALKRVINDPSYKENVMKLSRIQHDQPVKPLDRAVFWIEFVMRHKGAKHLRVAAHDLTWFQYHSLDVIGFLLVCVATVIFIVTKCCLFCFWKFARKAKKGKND
The data set can be described thus: (§2) Drug glucuronidation reaction catalyzed by human recombinant UGT2B7. Conditions: recombinant UGT2B7.

The target in data set [5] is T3, UDP-glucuronosyltransferase 2B7 (Homo sapiens, UniProt P16662).
T3 sequence (P16662 whole entry): T2 sequence (P16662 whole entry)
The data set is described as §2.

Data set [6] deals with T4, UDP-glucuronosyltransferase 1A9 (Homo sapiens, UniProt O60656).
T4 sequence (O60656 whole entry): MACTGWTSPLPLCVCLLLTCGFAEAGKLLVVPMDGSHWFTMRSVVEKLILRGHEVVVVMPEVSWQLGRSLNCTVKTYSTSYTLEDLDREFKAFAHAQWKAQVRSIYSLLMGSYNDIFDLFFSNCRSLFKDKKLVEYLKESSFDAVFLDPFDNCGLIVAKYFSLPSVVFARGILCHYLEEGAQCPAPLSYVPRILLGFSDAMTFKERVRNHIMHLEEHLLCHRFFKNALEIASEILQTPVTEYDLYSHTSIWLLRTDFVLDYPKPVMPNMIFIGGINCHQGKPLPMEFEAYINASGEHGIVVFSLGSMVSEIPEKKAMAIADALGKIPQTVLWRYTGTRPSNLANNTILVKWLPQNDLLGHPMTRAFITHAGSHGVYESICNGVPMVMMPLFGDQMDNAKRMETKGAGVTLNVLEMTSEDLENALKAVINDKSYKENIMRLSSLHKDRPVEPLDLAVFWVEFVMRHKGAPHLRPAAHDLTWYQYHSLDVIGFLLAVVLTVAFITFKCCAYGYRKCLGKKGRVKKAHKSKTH
Put plainly: Drug glucuronidation reaction catalyzed by human recombinant UGT1A9.

For data set [7], the target named is T5, UDP-glucuronosyltransferase 1A4 (Homo sapiens, UniProt P22310).
T5 sequence (P22310 whole entry): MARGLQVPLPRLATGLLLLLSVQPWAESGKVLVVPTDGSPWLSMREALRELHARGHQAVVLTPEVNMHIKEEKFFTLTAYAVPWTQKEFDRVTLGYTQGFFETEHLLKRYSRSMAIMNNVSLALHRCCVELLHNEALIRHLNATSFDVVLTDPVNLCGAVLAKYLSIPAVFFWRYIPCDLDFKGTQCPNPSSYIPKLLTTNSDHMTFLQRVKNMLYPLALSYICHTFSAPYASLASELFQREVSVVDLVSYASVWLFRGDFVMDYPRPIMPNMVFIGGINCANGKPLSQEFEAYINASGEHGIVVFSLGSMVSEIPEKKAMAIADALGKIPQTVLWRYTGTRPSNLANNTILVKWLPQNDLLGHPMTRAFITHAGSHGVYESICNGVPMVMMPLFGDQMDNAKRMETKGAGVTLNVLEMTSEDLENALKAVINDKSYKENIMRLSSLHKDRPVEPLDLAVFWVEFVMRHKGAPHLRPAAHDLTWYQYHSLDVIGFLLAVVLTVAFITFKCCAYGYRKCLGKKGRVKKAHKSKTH
Put plainly: Drug glucuronidation reaction catalyzed by human recombinant UGT1A4.

The target of data set [8] is T6, UDP-glucuronosyltransferase 1A1 (Homo sapiens, UniProt P22309).
T6 sequence (P22309 whole entry): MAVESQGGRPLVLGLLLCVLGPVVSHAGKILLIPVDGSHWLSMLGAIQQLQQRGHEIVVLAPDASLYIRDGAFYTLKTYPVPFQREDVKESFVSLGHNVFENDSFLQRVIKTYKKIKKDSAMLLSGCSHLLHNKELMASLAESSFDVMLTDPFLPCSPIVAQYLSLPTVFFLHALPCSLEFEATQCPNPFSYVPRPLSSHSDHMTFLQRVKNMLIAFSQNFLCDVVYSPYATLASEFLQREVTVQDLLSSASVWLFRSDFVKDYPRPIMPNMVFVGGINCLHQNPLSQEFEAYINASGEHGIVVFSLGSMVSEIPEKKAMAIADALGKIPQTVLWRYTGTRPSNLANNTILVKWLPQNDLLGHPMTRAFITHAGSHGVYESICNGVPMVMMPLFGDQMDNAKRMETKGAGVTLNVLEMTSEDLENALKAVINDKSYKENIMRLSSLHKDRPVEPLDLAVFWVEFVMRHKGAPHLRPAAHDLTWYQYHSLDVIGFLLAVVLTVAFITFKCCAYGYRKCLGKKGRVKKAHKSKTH
Put plainly: (§3) Drug glucuronidation reaction catalyzed by human recombinant UGT1A1.

Data set [9] deals with UDP-glucuronosyltransferase 2B15 (Homo sapiens, UniProt P54855). The data set can be described thus: Drug glucuronidation reaction catalyzed by human recombinant UGT2B15.
Data set [10] in a line: Inhibition of AZT (0.02 mM) glucuronidation by human UGT enzymes from liver microsomes. The arrangement: species or system Microsome.
Substrate in data set [11]: O=C1[C@H](CC[C@H](O)c2ccc(F)cc2)[C@@H](c2ccc(O)cc2)N1c1ccc(F)cc1
The description is as §3.

Substrate in data set [12]: CC(O)/C(=C(\c1ccccc1)c1ccc(OCCN(C)C)cc1)c1ccccc1
The description is as §3.

Substrate in data set [13]: COc1c(C)c2c(c(O)c1C/C=C(\C)CCC(=O)O)C(=O)OC2
The description is as §3.

Substrate in data set [14]: C#C[C@]1(O)CC[C@H]2[C@@H]3CCc4cc(O)ccc4[C@H]3CC[C@@]21C
The description is as §3.

Substrate in data set [15]: CCc1c2c(nc3ccc(O)cc13)-c1cc3c(c(=O)n1C2)COC(=O)[C@]3(O)CC
The description is as §3.

Substrate in data set [16]: CC(=O)Nc1ccc(O)cc1
The description is as §3.

Substrate in data set [17]: CO[C@]12CC[C@@]3(C[C@@H]1[C@](C)(O)C(C)(C)C)[C@H]1Cc4ccc(O)c5c4[C@@]3(CCN1CC1CC1)[C@H]2O5
The description is as §3.

Substrate in data set [18]: CCN(CC)C(=O)/C(C#N)=C/c1cc(O[C@@H]2O[C@@H](C(=O)O)[C@@H](O)[C@H](O)[C@@H]2O)c(O)c([N+](=O)[O-])c1
The description is as §3.

Substrate in data set [19]: CCN(CC)C(=O)/C(C#N)=C\c1cc(O[C@@H]2O[C@@H](C(=O)O)[C@@H](O)[C@H](O)[C@@H]2O)c(O)c([N+](=O)[O-])c1
Described as §3.

Substrate in data set [20]: COc1cc([C@@H]2c3cc4c(cc3[C@@H](O[C@@H]3O[C@@H]5CO[C@@H](C)O[C@H]5[C@H](O)[C@H]3O)[C@H]3COC(=O)[C@H]23)OCO4)cc(OC)c1O
Described as §3.

Substrate in data set [21]: CCOC(=O)Nc1ccc(NCc2ccc(F)cc2)cc1N
The data set is described as §3.

Substrate in data set [22]: O=C1CC[C@@]2(O)[C@H]3Cc4ccc(O)c5c4[C@@]2(CCN3CC2CC2)[C@H]1O5
The data set is described as §3.

Substrate in data set [23]: C=CCN1CC[C@]23c4c5ccc(O)c4O[C@H]2[C@@H](O)C=C[C@H]3[C@H]1C5
Described as §3.

Substrate in data set [24]: CN1CC[C@]23c4c5ccc(O[C@@H]6O[C@H](C(=O)O)[C@@H](O)[C@H](O)[C@H]6O)c4O[C@H]2[C@@H](O)C=C[C@H]3[C@H]1C5
The description is as §3.

UDP-glucuronosyltransferase 2B15, sequence (P54855 whole entry): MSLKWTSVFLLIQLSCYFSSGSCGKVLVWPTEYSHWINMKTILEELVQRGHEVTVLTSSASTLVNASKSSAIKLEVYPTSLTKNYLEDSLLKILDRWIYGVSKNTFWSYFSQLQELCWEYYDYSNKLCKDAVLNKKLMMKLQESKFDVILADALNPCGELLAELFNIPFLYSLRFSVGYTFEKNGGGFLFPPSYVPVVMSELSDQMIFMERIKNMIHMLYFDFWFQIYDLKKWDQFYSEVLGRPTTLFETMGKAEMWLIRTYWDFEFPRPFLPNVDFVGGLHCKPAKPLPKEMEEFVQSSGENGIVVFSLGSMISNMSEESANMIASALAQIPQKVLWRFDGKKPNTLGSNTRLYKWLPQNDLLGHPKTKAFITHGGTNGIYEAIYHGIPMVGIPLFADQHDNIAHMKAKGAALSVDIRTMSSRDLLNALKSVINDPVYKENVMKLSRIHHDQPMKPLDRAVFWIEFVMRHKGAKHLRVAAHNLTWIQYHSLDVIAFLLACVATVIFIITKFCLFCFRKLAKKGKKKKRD

Consider `CC(C(=O)O)c1ccc(-c2ccccc2)c(F)c1` (centres undefined) [FLURBIPROFEN], for which the Michaelis constant (Km) is 90 µM in [1] and 28 µM in data set [4]. Further, the Vmax turned out to be 45 pmol/min/mg protein in [2] and 315 pmol/min/mg protein in [5]. In [3], the Ki was 50 µM.

As to `CC(O)/C(=C(\c1ccccc1)c1ccc(OCCN(C)C)cc1)c1ccccc1` (stereo in doubt; trans), the Vmax in data set [6] is listed as 72 pmol/min/mg protein; in data set [7], 547 pmol/min/mg protein; in data set [8], 166 pmol/min/mg protein; in data set [9], 70 pmol/min/mg protein.

For `O=C1C(O)=C([C@H]2CC[C@H](c3ccc(Cl)cc3)CC2)C(=O)c2ccccc21` [ATOVAQUONE], in [10], the IC50 is > 273 µM.

For `CC(O)/C(=C(\c1ccccc1)c1ccc(OCCN(C)C)cc1)c1ccccc1` (stereo in doubt; cis), the Vmax is listed as 57 pmol/min/mg protein in [6], 315 pmol/min/mg protein in [7], 291 pmol/min/mg protein in data set [8] and 720 pmol/min/mg protein in [9].

In data set [10], `OC(Cn1cncn1)(Cn1cncn1)c1ccc(F)cc1F` [FLUCONAZOLE] came in with a 50% inhibitory concentration (IC50) of 163 µM.

B1: UDP-glucuronosyltransferase 1A1 (Homo sapiens) (protein)
chain: T6 sequence (P22309 whole entry)
As for B1, the Km in data set [11] was 64 µM; in data set [12] it was 138 µM and 129 µM; in data set [13], 185 µM; in data set [14] it was 9 µM and 20 µM; in data set [15], 24 µM; in [16] it was 9400 µM. Moreover, the Michaelis-Menten constant (Km) in [17] is 57 µM and 69 µM; in [18], 31 µM; in data set [19], 93 µM; in [20] it was 503 µM; in data set [21] it was 460 µM; in data set [22] it was 1310 µM. Further, the values for the Km in data set [23] and in [24] were 2070 µM and 18700 µM, respectively. The Vmax in data set [11] is 0.00071 µmol/min/mg; in data set [13] it was 0.000336 µmol/min/mg; in [15], 0.000134 µmol/min/mg; in [16], 0.0013 µmol/min/mg; in data set [18] it was 4e-06 µmol/min/mg; in data set [19], 5e-06 µmol/min/mg. For the same molecule, the Vmax came out at 0.000267 µmol/min/mg in data set [20], 2e-06 µmol/min/mg in data set [22], 2e-06 µmol/min/mg in [23] and 4.5e-06 µmol/min/mg in data set [24].

Broadly, the Km is the substrate concentration at which the rate is half of its maximum. By Ki is commonly meant the equilibrium dissociation constant of an inhibitor or competing ligand from its target. By IC50 is commonly meant the concentration that inhibits the measured activity by half.
